# Test results reported in the supplement of paper PMC10126150.
# ± gives the standard deviation of the averaged measurements.
# Tested on: ATP
# Experiment: switch fluorescence ratio, 500 uM ATP over buffer (Cy3 cluster intensity, sum of 5 cycles each) (fold (ratio)); higher = stronger signal-on switching upon ATP binding; sequences stand for … in TCGTCGGCAGCGTCAGATGTGTATAAGAGACAGTTTTTTTTTTTTTTTTTTTTTTTTT…TC
# Settings: aptamer strand: ATP DNA aptamer (quencher-CACCTGGGGGAGTATTGCGGAGGAAGG + anchor), 100 nM annealed; ATP concentration: 500 uM
# How it was run: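 The fluorescence ratio divides summed target-cycle Cy3 intensity by summed buffer-cycle Cy3 intensity for each cluster and is averaged per switch-domain sequence. Cy3-labelled switching-strand clusters on a modified Illumina MiSeq flow-cell were annealed to 100 nM quencher-labelled ATP aptamer, then imaged in selection buffer and again after 15 min with 500 uM ATP at 22 °C. Five such cycles were run, with NaOH stripping and re-annealing between them, and clusters outside 100-1000 RFU were excluded.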
# 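Also: ATP exposure 15 min at 22 °C before imaging.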
row,Sequence,switch fluorescence ratio
1,TCGACGTTGT,1.1 ± 0.036
2,CATTACGGCG,0.995 ± 0.043
3,GGGAAATTAG,1 ± 0.026
4,TAACTGTCTT,0.966 ± 0.013
5,GTTAGTTGGA,0.964 ± 0.025
6,AGGCTACATA,1.03 ± 0.019
7,GTTCGAAGGG,0.987 ± 0.013
8,TCTGGGAAGG,1.01 ± 0.042
9,ATTCGTTTTC,1.02 ± 0.024
10,TGTTGTAAAC,1.05 ± 0.032
11,TATATTACCA,1.01 ± 0.051
12,GTTAACGCGT,1.02 ± 0.02
13,TTTGTTGAGC,1.44 ± 0.66
14,TTTAAAATTC,1.28 ± 0.49
15,ATGCAGATCC,1.04 ± 0.042
16,TAATGTATGA,0.972 ± 0.04
17,TTTTTTATTG,0.989 ± 0.029
18,TTTGATTCTT,1.004 ± 0.0033
19,CGGGGCAAAT,1.04 ± 0.028
20,ATGAGGGCTA,0.983 ± 0.044
21,GCGCGCGGAA,1.016 ± 0.0016
22,GGGCGGTGTC,1.01 ± 0.042
23,AGAAGTTTTG,1.04 ± 0.054

row,Sequence,switch fluorescence ratio
1,CAATTGGGTT,0.985 ± 0.025
2,TGACATCATT,1.063 ± 0.002
3,AACTATTTGT,0.978 ± 0.015
4,GTTGGACAGA,1.03 ± 0.015
5,TAATAAAGTT,1.02 ± 0.018
6,GGCATATGTA,0.9829 ± 0.0076
7,TAAGCGGGGT,1.012 ± 0.008
8,AGGATATTGG,1.01 ± 0.02
9,GTGTTCTTAT,1.01 ± 0.011
10,AGCCCGTCGT,0.99 ± 0.022
11,AAAATAAGGA,0.986 ± 0.018
12,GCTTCCTAAG,1.139 ± 0.0072
13,AAACTATGGA,0.961 ± 0.022
14,GGGGCGTGGG,0.963 ± 0.042
15,GAACGTTATT,1.2 ± 0.23
16,GGTTAAATTA,1.01 ± 0.013
17,GGGTTGTGTA,1 ± 0.014
18,TAACGATGGG,1.014 ± 0.01
19,GGTGTTGTTC,1.01 ± 0.014
20,GGTTCGGTTC,1.02 ± 0.017
21,CTGCGTGATG,1.03 ± 0.011
22,GAGGTGCGGG,0.99 ± 0.023
23,AAATGAGATT,1.002 ± 0.0048

row,Sequence,switch fluorescence ratio
1,TCCGCCATGG,2.71 ± 0.28
2,TTGTTGGTTA,0.9925 ± 0.0028
3,ACTTAAAATG,1.06 ± 0.082
4,TTTATAAAGG,1.01 ± 0.034
5,TAACTAATAA,1.01 ± 0.018
6,TAATGGATGG,0.966 ± 0.019
7,ATCATGGAGG,0.993 ± 0.017
8,GTGAGGCCGC,1.0626 ± 0.001
9,TTACATAGGG,1.019 ± 0.0079
10,CGCGGTAATT,1.05 ± 0.063
11,AAAACAGTT,1.05 ± 0.02
12,CCTTGGAACG,1.03 ± 0.011
13,CACCTCAGAT,1.05 ± 0.023
14,TGAGTGCTCT,0.9733 ± 0.0062
15,CAGAATGCGG,0.991 ± 0.023
16,TAGCGAAAAA,0.992 ± 0.016
17,TATTGTGTTT,0.9781 ± 0.0039
18,GGGGCGGCAG,0.998 ± 0.013
19,AGAATTAACT,0.998 ± 0.025
20,CTAGGGCATG,0.98 ± 0.016
21,TAAATGGAA,1 ± 0.024
22,GAGGATGAGG,0.954 ± 0.0017
23,GCAATTGCTG,0.9802 ± 0.0023

row,Sequence,switch fluorescence ratio
1,TTAGTGATTA,0.996 ± 0.014
2,TCATAGTACG,1.02 ± 0.043
3,CGGCAGGGTG,1.05 ± 0.0092
4,TGGAAAAAAG,0.9901 ± 0.0015
5,GGTGTTGCAA,1.02 ± 0.016
6,CCTGGGAGTG,0.999 ± 0.035
7,GCCCCACCTG,1.05 ± 0.029
8,GTCTATAATT,0.9879 ± 0.0048
9,AAGGAAATGG,1.01 ± 0.035
10,ATTTTCACAG,1.03 ± 0.077
11,ATGATGGGT,1.01 ± 0.028
12,ATTTACACGC,1.02 ± 0.02
13,ACTTAGTCTA,1.023 ± 0.0066
14,AGGAAAGGGC,0.983 ± 0.034
15,TGCCGGGGGA,1.01 ± 0.018
16,TAGGCGGCAC,1.03 ± 0.046
17,CCTAAAGTAG,1.017 ± 0.0071
18,TAACCCCGCT,1.42 ± 0.25
19,CGTATCGGGG,0.993 ± 0.054
20,TTTTTCCGTG,0.9819 ± 0.0037
21,TGTGTGTTGA,1.023 ± 0.0026
22,CTCACCACGA,1.09 ± 0.057
23,TTATTTATTT,0.975 ± 0.03

row,Sequence,switch fluorescence ratio
1,CATAAAAGAT,1.01 ± 0.017
2,ACAGCTTCTA,1.03 ± 0.021
3,AAACATACCT,1.4 ± 0.078
4,GTGGCTGGGG,1 ± 0.029
5,TCTTTGGGGG,1 ± 0.053
6,GGGATTTTCT,1.011 ± 0.0091
7,AAGGGTTTCT,1.02 ± 0.038
8,CTACAATGTA,1.01 ± 0.021
9,GGTGTTTTCA,0.988 ± 0.026
10,GGGGTGATAT,1.58 ± 0.78
11,TAATTAGCGC,1.03 ± 0.016
12,GCATGCGGGA,1.02 ± 0.074
13,CTACGAAGGG,1.04 ± 0.021
14,TGTGTCGCGT,0.983 ± 0.02
15,ATCGGAAGCG,1.03 ± 0.011
16,TTTCTTGCAC,1.067 ± 0.0095
17,GGGGAGGGAA,1.01 ± 0.027
18,ACATCAATTC,1.1 ± 0.014
19,TAATTTAAAA,1.05 ± 0.12
20,TCAGTCCTAT,1 ± 0.026
21,AAGTGATATA,1.01 ± 0.017
22,CGGGTAAAGG,0.9441 ± 0.0076
23,GCCGTACTCT,1.1 ± 0.1

row,Sequence,switch fluorescence ratio
1,GGTTAGTGTC,1.05 ± 0.047
2,AGTTTAGGTA,1.01 ± 0.052
3,AAGGGTATGG,0.9729 ± 0.0076
4,AGTTTGCTTT,0.995 ± 0.035
5,GAAACCGGAT,0.966 ± 0.041
6,GACTGGGCGA,1.02 ± 0.029
7,GCTATTGCGG,1.028 ± 0.0042
8,AGCTAACGAC,1.83 ± 0.067
9,TTTAATCTG,0.962 ± 0.021
10,TCCACCGGCT,1.03 ± 0.052
11,GGCTAGGGGA,1.13 ± 0.21
12,GGCTGTTTGG,1 ± 0.012
13,CAGAAGGGAG,0.98 ± 0.01
14,GCGGGGGAGG,0.993 ± 0.029
15,AGTCGTTTGC,0.938 ± 0.061
16,AACAGAGTTA,1.02 ± 0.013
17,CTTCGTGATG,1.1044 ± 0.00079
18,ACAATGGCAC,1.06 ± 0.029
19,TAATTAGAGG,1.01 ± 0.027
20,TTTATGCCAT,0.989 ± 0.012
21,GAAGGTGGGG,0.992 ± 0.037
22,GAGTTAAACA,0.994 ± 0.021
23,CCGGGTTTTG,1.017 ± 0.0016

row,Sequence,switch fluorescence ratio
1,TGGGATTCGG,1.03 ± 0.092
2,GGTTACGTAG,1.045 ± 0.0078
3,ACTTATGGGA,1.02 ± 0.019
4,CTGCGACTTT,1.02 ± 0.035
5,TTCTGTTGAT,0.9875 ± 0.0092
6,ATGTATTTGG,1.01 ± 0.014
7,TTTTATTGCA,0.96835 ± 0.00073
8,TCGAAGTAGG,1.46 ± 0.71
9,TTTTGGCGCG,1 ± 0.061
10,TTTGTTTAAG,0.973 ± 0.012
11,AGATGTCGTT,0.997 ± 0.039
12,GAAGTAGCGG,1.018 ± 0.0084
13,GGTTCGGGGG,0.997 ± 0.037
14,AGCCGGGGGC,1.004 ± 0.002
15,GCGTATCGGA,1.01 ± 0.043
16,CTAAGGTCTT,1.07 ± 0.11
17,ACTTTCTCAG,1.077 ± 0.0049
18,AAAACACGCT,1.18 ± 0.2
19,GGTTGATATG,1 ± 0.041
